Experimental data taken from patent publication US11572572B2, “A138T mutation-containing plant EPSPS mutant, and encoding gene and application thereof” (GEVOTO LLC, priority 2017, dated 2023).
Numbering of substitutions follows the chain as printed.

B1: R5: Oryza sativa EPSPS mutant containing G111(96)A, P116(101)S, and A155(138)T (SEQ ID NO: 9), encoding gene SEQ ID NO: 19 (protein)
chain: MASNAAAAAAKAEEIVLQPIREISGAVQLPGSKSLSNRILLLSALSEGTTVVDNLLNSEDVHYMLEALKALGLSVEADKVAKRAVVVGCGGKFPVEKDAKEEVQLFLGNAATAMRSLTAAVTAAGGNATYVLDGVPRMRERPIGDLVVGLKQLGTDVDCFLGTECPPVRVKGIGGLPGGKVKLSGSISSQYLSALLMAAPLALGDVEIEIIDKLISIPYVEMTLRLMERFGVKAEHSDSWDRFYIKGGQKYKSPGNAYVEGDASSASYFLAGAAITGGTVTVQGCGTTSLQGDVKFAEVLEMMGAKVTWTDTSVTVTGPPREPYGKKHLKAVDVNMNKMPDVAMTLAVVALFADGPTAIRDVASWRVKETERMVAIRTELTKLGASVEEGPDYCIITPPEKLNITAIDTYDDHRMAMAFSLAACADVPVTIRDPGCTRKTFPNYFDVLSTFVRN
modifications: Oryza sativa EPSPS mutant with mutations G111(96)A, P116(101)S, and A155(138)T
B2: R4: Oryza sativa EPSPS mutant containing G111(96)A and P116(101)S (SEQ ID NO: 8), encoding gene SEQ ID NO: 18 (protein)
chain: B1 chain with T155A
modifications: Oryza sativa EPSPS mutant with mutations G111(96)A and P116(101)S
B3: T1: Triticum aestivum EPSPS mutant containing G113(96)A and P118(101)S (SEQ ID NO: 4), gene SEQ ID NO: 21; Control Group 2 of Example 7 (protein)
chain: MATSVAAPAAPAGAEEVVLQPIREISGAVQLPGSKSLSNRILLLSALSEGTTVVDNLLNSEDVHYMLEALEALGLSVEADKVAKRAVVVGCGGRFPVEKDAKEEVKLFLGNAATAMRSLTAAVVAAGGNATYVLDGVPRMRERPIGDLVVGLQQLGADVDCFLGTNCPPVRINGKGGLPGGKVKLSGSISSQYLSSLLMAAPLALEDVEIEIIDKLISVPYVEMTLKLMEHFGVTAEHSDSWDRFYIKGGQKYKSPGNAYVEGDASSASYFLAGAAITGGTVTVEGCGTTSLQGDVKFAEVLEMMGAKVTWTDTSVTVTGPPRQPFGRKHLKAVDVNMNKMPDVAMTLAVVALFADGPTAIRDVASWRVKETERMVAIRTELTKLGATVEEGPDYCIITPPEKLNITAIDTYDDHRMAMAFSLAACAEVPVTIRDPGCTRKTFPNYFDVLSTFVKN
modifications: Triticum aestivum EPSPS mutant with mutations G113(96)A and P118(101)S

Tested on: transgenic rice seedlings
Experiment: Glyphosate resistance of EPSPS mutants in transgenic rice sprayed with glyphosate (Example 8)
Assay type: in vivo, rice (Nipponbare)
Excerpt: The glyphosate resistance of the EPSPS mutants of the above examples in transgenic rice was detected by the following method.
Plasmids of monoclonal resistant strain comprising pADV5-EPSPS of Examples 1-4 (containing the EPSPS mutant genes) were extracted in accordance with a conventional method. They were subjected to double enzymatic digestion with Pacl and BstEII to recover small fragments, and then the small fragments were ligated, using T4 DNA ligase, to a pGVP1 vector subjected to double enzymatic digestion in the same manner, to obtain a pGVP1-EPSPS vector having a structure as shown in FIG. 8.
The pGVP1-EPSPS vector was transformed into EHA105 (Agrobacterium tumefaciens) competent cells, and single clones were picked out for colony PCR detection to obtain positive strains. Then, the positive strains were inoculated into and propagated in 1 mL of a YEP medium containing 50 μg·mL^−1 kanamycin and 50 μg·mL^−1 rifampicin, and stored at −80° C. or used in subsequent experiments.
400 ul of a strain containing the target gene vector stored at −80° C. was added to a culture dish with a solid medium containing YEP+50 μg/mL rifampicin+50 μg/mL kanamycin and cultured in the dark at 28° C. for 24 hours, and then the bacterium was added to an infection medium and adjusted to OD=0.2 as an infection solution.
Disinfection and Pre-culture: seeds of mature rice (Nipponbare) were manually dehulled. Full seeds with no bacterial plaques were selected and disinfected in accordance with the following steps: the seeds were placed in a 50 ml sterile centrifuge tube and disinfected with the added 70% ethanol in water for 30 seconds, ethanol solution was poured out, and the seeds were washed once with sterile water; 10 to 20 ml of 2.6% sodium hypochlorite solution was added to soak and disinfect the seeds for 20 minutes. The sodium hypochlorite solution was poured out, and the seeds were soaked and washed with sterile water for 6 or 7 times, for 3 minutes each time.
Induction and Subculture: the seeds were placed on and blotted with sterile filter paper, and the mature embryos were placed in an induction medium, with 12 embryos per dish. After the operation was completed, the culture dishes were sealed with parafilm and underwent culturing in the dark at 30° C. for 21 to 28 days. Callus tissue was transferred to a fresh medium and continued to be cultured for about 7 to 14 days. Spherical callus tissue with a dimension of 1 to 2 mm was taken as an infection receptor.
The callus tissue was placed into a centrifuge tube or culture cup, infected in the prepared Agrobacterium suspension added thereto for 10 minutes, and shaken several times during the period; the bacterial solution was poured out, the callus tissue was taken out and placed on sterile filter paper for absorbing the bacterial solution from its surface (for about 30 minutes); the callus tissue was placed on sterile filter paper in culture dishes and cultured in the dark at 25° C. for 2 or 3 days.
Recovery Culture: the co-cultured callus tissue was inoculated on a recovery medium and cultured in the dark at 30° C. for 5 to 7 days.
Primary Screening: the callus was transferred to screening medium 1 (51) and cultured in the dark at 30° C. for 14 days.
Secondary Screening: the callus was then transferred to screening medium 2 (S2) and cultured in the dark at 30° C. for 14 days.
Primary Differentiation: the screened resistant callus tissue was transferred to a differentiation medium and cultured for about 21 days at 30° C. under exposure to light for 19 hours.
Secondary Differentiation: new young shoots were selected and moved to a fresh differentiation medium and continued to be cultured for about 21 days.
When the new seedlings grew to about 2 cm, they were moved to a rooting medium and cultured for 3 to 4 weeks at 30° C. under exposure to light (for 16/8 h). […]

[1] = 1X dose glyphosate (1,060 g/ha), day 10 after spraying
[2] = 2X dose glyphosate (2,120 g/ha) on survivors of 1X, after another 10 days
[3] = 5X dose glyphosate (5,300 g/ha) on survivors of 2X, after additional 10 days
[4] = 20X dose glyphosate (21,200 g/ha) on survivors of 5X, after further 10 days

Row | Molecule | % ++&+++ (percentage of moderately and highly glyphosate resistant plants in total plants observed) [1] | plant number with resistance + (low glyphosate resistant) [1] | plant number with resistance ++ (moderately glyphosate resistant) [1] | plant number with resistance +++ (highly glyphosate resistant) [1] | % ++&+++ (percentage of moderately and highly glyphosate resistant plants in total plants observed) [2] | plant number with resistance + (low glyphosate resistant) [2] | plant number with resistance ++ (moderately glyphosate resistant) [2] | plant number with resistance +++ (highly glyphosate resistant) [2] | plant number with resistance − (non-glyphosate resistant, withered or dead) [2] | % ++&+++ (percentage of moderately and highly glyphosate resistant plants in total plants observed) [3] | plant number with resistance + (low glyphosate resistant) [3] | plant number with resistance ++ (moderately glyphosate resistant) [3] | plant number with resistance +++ (highly glyphosate resistant) [3] | plant number with resistance − (non-glyphosate resistant, withered or dead) [3] | plant number with resistance + (low glyphosate resistant) [4] | plant number with resistance ++ (moderately glyphosate resistant) [4] | plant number with resistance +++ (highly glyphosate resistant) [4] | plant number with resistance − (non-glyphosate resistant, withered or dead) [4] | level of glyphosate resistance of transformed rice seedlings compared with the mutant lacking the A138T mutation (R4 for R5, T1 for T2) (in words) (each of 1×, 2×, 5×, and 20× glyphosate doses) | % ++&+++ (percentage of moderately and highly glyphosate resistant plants in total plants observed) [4]
1 | B1 | 92.0% | 0 | 0 | 23 | 84.0% | 0 | 1 | 20 | 4 | 76.0% | 2 | 2 | 17 | 4 | 1 | 6 | 13 | 5 | higher levels of glyphosate resistance | 
2 | B2 | 88.5% | 0 | 0 | 23 | 80.8% | 2 | 1 | 20 | 3 | 69.2% | 3 | 1 | 17 | 5 | 3 | 10 | 3 | 10 |  | 50.0%
3 | B3 | 70.0% | 1 | 7 | 14 | 36.7% | 4 | 1 | 10 | 15 | 36.7% | 4 | 7 | 4 | 15 | 7 | 4 | 0 | 19 |  | 13.3%
